Measured values as given in publication PMC13213242, “A novel ψ–χ fusion protein for unravelling the contributions of χ to DNA replication and repair” (Nucleic Acids Research, 2026).
Where two headings read alike, the source gives them in different places.

Legend:
[1] = molecular target: β-AF488_(2) (β sliding clamp R103C/I305C/C260S/C333S labelled with Alexa Fluor 488) (E. coli) (UniProt P0A988); assay: other fluorescence titration; γ complex titrated into β-AF488_(2) (20 nM in the text, 10 nM in the legend) with 0.5 mM ATP; relative AF488 intensity at 520 nm, excitation 495 nm; reaction buffer 20 mM Tris–HCl pH 7.5, 50 mM NaCl, 8 mM MgCl2, 5 mM DTT, 0.5 mM EDTA, 40 μg/ml BSA, 4% glycerol; three independent experiments
[2] = molecular target: beta clamp (Escherichia coli) (UniProt P0A988); conditions: cited from earlier work
[3] = molecular target: beta clamp (Escherichia coli) (UniProt P0A988); conditions: cited from earlier work; remark: listed apart in the source
[4] = molecular target: T1, WT γ complex clamp loader (γ3δδ′ψχ) (E. coli, UniProt P06710-2 1-431; P28630 1-343; P28631 1-334; P28632 1-137; P28905 1-147); assay: other fluorescence titration; γ complex titrated into β-AF488_(2) (20 nM in the text, 10 nM in the legend) with 0.5 mM ATP; relative AF488 intensity at 520 nm, excitation 495 nm; reaction buffer 20 mM Tris–HCl pH 7.5, 50 mM NaCl, 8 mM MgCl2, 5 mM DTT, 0.5 mM EDTA, 40 μg/ml BSA, 4% glycerol; three independent experiments; conditions: both partners purified
T1 construct: DNA polymerase III subunit γ, the truncated form of DnaX made by a translational frameshift, E. coli; DNA polymerase III subunit δ, E. coli; DNA polymerase III subunit δ′, E. coli; DNA polymerase III subunit ψ, E. coli; DNA polymerase III subunit χ, E. coli; also called WT clamp loader; source: expressed and purified as described previously [12, 25–28]; copies: 3 + + + +

Question: For “γ complex containing ψ–GS12–χ (γ3δδ′ψ–GS12–χ) (from UniProt P06710-2 1-431; P28630 1-343; P28631 1-334; P28632 1-137)”, which Kd [1] is on record?
Answer: 2.1 nM

Question: With “gamma complex clamp loader (from UniProt P06710)” as the molecule, how does the Kd [2] read?
Answer: 3.3 nM

Question: And the Kd [3]?
Answer: 3.2 nM

Question: For “γ complex containing ψ–GS8–χ (γ3δδ′ψ–GS8–χ) (from UniProt P06710-2 1-431; P28630 1-343; P28631 1-334; P28632 1-137)”, which Kd [1] is on record?
Answer: 4.2 nM

B1: β-AF488_(2) (β sliding clamp R103C/I305C/C260S/C333S labelled with Alexa Fluor 488) (natural protein, E. coli, UniProt P0A988 1-366, looked up)
chain: MKFTVEREHLLKPLQQVSGPLGGRPTLPILGNLLLQVADGTLSLTGTDLEMEMVARVALVQPHEPGATTVPARKFFDICRGLPEGAEIAVQLEGERMLVRSGCSRFSLSTLPAADFPNLDDWQSEVEFTLPQATMKRLIEATQFSMAHQDVRYYLNGMLFETEGEELRTVATDGHRLAVCSMPIGQSLPSHSVIVPRKGVIELMRMLDGGDNPLRVQIGSNNIRAHVGDFIFTSKLVDGRFPDYRRVLPKNPDKHLEAGSDLLKQAFARAAILSNEKFRGVRLYVSENQLKITANNPEQEEAEECLDVTYSGAEMEIGFNVSYVLDVLNALKSENVRMMLTDSVSSVQIEDAASQSAAYVVMPMRL
modifications: Alexa Fluor 488 (maleimide) on the introduced surface Cys residues (R103C, I305C)
notes: DNA polymerase III β sliding clamp, E. coli; labelled at both sides of the dimer interface; also called β-AF88_(2); β-R103C/I305C/C260S/C333S; source: expressed and purified as described previously; labelled with AF488 maleimide, purified (BioGel P6-DG desalting, HiTrap Q)
Question: Which Kd [4] does the source give for B1 here?
Answer: 2 nM
